Data taken from the RNAGym collection of RNA variant scans (doi:10.7554/elife.80360).

B1: CPEB3 Ribozyme (parent)
chain: GGGGGCCACAGCAGAAGCGUUCACGUCGCGGCCCCUGUCAGAUUCUGGUGAAUCUGCGAAUUCUGCUGU

Variants of: B1
Assay: self-cleavage, relative activity (ratio to wild type); higher = more cleavage; co-transcriptional

Row | Variant | self-cleavage
1 | GGGGGCCACAGCAGAAGCGUUCACGUCGCGGCCCUUGCCAGAUUCUGGUGAAUCUGCGAAUUCUGCUGU | 0.876
2 | GGGGGCCACAGCAGAAGCGUUCACGUCGCGGCCCUUGGCAGAUUCUGGUGAAUCUGCGAAUUCUGCUGU | 0.184
3 | GGGGGCCACAGCAGAAGCGUUCACGUCGCGGCCCUUGACAGAUUCUGGUGAAUCUGCGAAUUCUGCUGU | 0.901
4 | GGGGGCCACAGCAGAAGCGUUCACGUCGCGGCCCUUGUCAGAUUCUGGUCAAUCUGCGAAUUCUGCUGU | 0.979
5 | GGGGGCCACAGCAGAAGCGUUCACGUCGCGGCCCUUGUCAGAUUCUGGUAAAUCUGCGAAUUCUGCUGU | 0.974
6 | GGGGGCCACAGCAGAAGCGUUCACGUCGCGGCCCUUGUCAGAUUCUGGUGAAUCUGCGAAUUCUUCUGU | 0.632
7 | GGGGGCCACAGCAGAAGCGUUCACGUCGCGGCCCUUGUCAGAUUCUGGUGAAUCUGCGAAUUCUACUGU | 0.847
8 | GGGGGCCACAGCAGAAGCGUUCACGUCGCGGCCCUUGUCAGGUUCUGGUGAAUCUGCGAAUUCUGCUGU | 0.943
9 | GGGGGCCACAGCAGAAGCGUUCACGUCGCGGCCCUUGUCAGCUUCUGGUGAAUCUGCGAAUUCUGCUGU | 0.81
10 | GGGGGCCACAGCAGAAGCGUUCACGUCGCGGCCCUUGUCAGUUUCUGGUGAAUCUGCGAAUUCUGCUGU | 0.907
11 | GGGGGCCACAGCAGAAGCGUUCACGUCGCGGCCCGUGUCAGAUUCUGGUGAAUCUGCCAAUUCUGCUGU | 0.295
12 | GGGGGCCACAGCAGAAGCGUUCACGUCGCGGCCCGUGUCAGAUUCUGGUGAAUCUGCUAAUUCUGCUGU | 0.375
13 | GGGGGCCACAGCAGAAGCGUUCACGUCGCGGCCCGUGUCAGACUCUGGUGAAUCUGCGAAUUCUGCUGU | 0.372
14 | GGGGGCCACAGCAGAAGCGUUCACGUCGCGGCCCGUGUCAGAGUCUGGUGAAUCUGCGAAUUCUGCUGU | 0.31
15 | GGGGGCCACAGCAGAAGCGUUCACGUCGCGGCCCGUGUCAGAAUCUGGUGAAUCUGCGAAUUCUGCUGU | 0.335
16 | GGGGGCCACAGCAGAAGCGUUCACGUCGCGGCCCGUGGCAGAUUCUGGUGAAUCUGCGAAUUCUGCUGU | 0.178
17 | GGGGGCCACAGCAGAAGCGUUCACGUCGCGGCCCGUGACAGAUUCUGGUGAAUCUGCGAAUUCUGCUGU | 0.417
18 | GGGGGCCACAGCAGAAGCGUUCACGUCGCGGCCCUAGUCAGAUUCUGGUGAAUCUGCGAAUUCUGCUGU | 0.212
19 | GGGGGCCACAGCAGAAGCGUUCACGUCGCGGCCCUCGUCAGAUUCUGGUGAAUCUGCGAAUUCUGCUGU | 0.941
20 | GGGGGCCACAGCAGAAGCGUUCACGUCGCGGCCCUGGUCAGAUUCUGGUGAAUCUGCGAAUUCUGCUGU | 0.237
21 | GGGGGCCACAGCAGAAGCGUUCACGUCGCGGCCCUUGUCAGAUUCUGGUGAAUCUACGAAUUCUGCUGU | 0.819
22 | GGGGGCCACAGCAGAAGCGUUCACGUCGCGGCCCUUGUCAGAUUCUGGUGAAUCUUCGAAUUCUGCUGU | 0.859
23 | GGGGGCCACAGCAGAAGCGUUCACGUCGCGGCCCUUGUCAGAUUCUGGUGAAUCUCCGAAUUCUGCUGU | 0.651
24 | GGGGGCCACAGCAGAAGCGUUCACGUCGCGGCCCGUGUCAGAUUCUGGUGAAUCUGCGAAUUCCGCUGU | 0.274
25 | GGGGGCCACAGCAGAAGCGUUCACGUCGCGGCCCGUGUCAGAUUCUGGUGAAUCUGCGAAUUCGGCUGU | 0.304
26 | GGGGGCCACAGCAGAAGCGUUCACGUCGCGGCCCGUGUCAGAUACUGGUGAAUCUGCGAAUUCUGCUGU | 0.346

Row | Variant | self-cleavage
27 | GGGGGCCACAGCAGAAGCGUUCACGUCGCGGCCCGUGUCAGAUCCUGGUGAAUCUGCGAAUUCUGCUGU | 0.357
28 | GGGGGCCACAGCAGAAGCGUUCACGUCGCGGCCCUUGUCGGAUUCUGGUGAAUCUGCGAAUUCUGCUGU | 0.914
29 | GGGGGCCACAGCAGAAGCGUUCACGUCGCGGCCCGUGUCAGAUUCUGGUGAAUCUGCGAAUUCUGCUGG | 0.545
30 | GGGGGCCACAGCAGAAGCGUUCACGUCGCGGCCCGUGUCAGAUUCUGGUGAAUCUGCGAAUUCUGCUGA | 0.543
31 | GGGGGCCACAGCAGAAGCGUUCACGUCGCGGCCCGUGUCAGAUUCUGGUGAAUCUGCGAAUUCUGCUGC | 0.77
32 | GGGGGCCACAGCAGAAGCGUUCACGUCGCGGCCCGUGUCAGAUUCUGGUGAAUCUGCGAAUUCUUCUGU | 0.223
33 | GGGGGCCACAGCAGAAGCGUUCACGUCGCGGCCCGUGUCAGAUUCUGGUGAAUCUACGAAUUCUGCUGU | 0.297
34 | GGGGGCCACAGCAGAAGCGUUCACGUCGCGGCCCGUGUCAGAUUCUGGUGAAUCUCCGAAUUCUGCUGU | 0.331
35 | GGGGGCCACAGCAGAAGCGUUCACGUCGCGGCCCGUGUCAGAUUCUGGUGAAUCUUCGAAUUCUGCUGU | 0.307
36 | GGGGGCCACAGCAGAAGCGUUCACGUCGCGGCCCGUGUCAGAUUCUGGUGAAUCUGCGAAUUCUGCAGU | 0.638
37 | GGGGGCCACAGCAGAAGCGUUCACGUCGCGGCCCGUGUCAGAUUCUGGUGAAUCUGCGAAUUCUGCGGU | 0.574
38 | GGGGGCCACAGCAGAAGCGUUCACGUCGCGGCCCGUGUCAGAUUCUGGUGAAGCUGCGAAUUCUGCUGU | 0.214
39 | GGGGGCCACAGCAGAAGCGUUCACGUCGCGGCCCGUGUCAGAUUCUGGUGAACCUGCGAAUUCUGCUGU | 0.342
40 | GGGGGCCACAGCAGAAGCGUUCACGUCGCGGCCCUUGUCAGAUUCUGGUGAAUCUGCUAAUUCUGCUGU | 0.984
41 | GGGGGCCACAGCAGAAGCGUUCACGUCGCGGCCCUUGUCAGAUUCUGGUGAAUCUGCAAAUUCUGCUGU | 0.878
42 | GGGGGCCACAGCAGAAGCGUUCACGUCGCGGCCCUUGUCAGAUUCUGGUGAAUCUGCCAAUUCUGCUGU | 0.878
43 | GGGGGCCACAGCAGAAGCGUUCACGUCGCGGCCCUUGUCAGAUUCUGUUGAAUCUGCGAAUUCUGCUGU | 0.987
44 | GGGGGCCACAGCAGAAGCGUUCACGUCGCGGCCCUUGUCAGAUUCUGCUGAAUCUGCGAAUUCUGCUGU | 0.964
45 | GGGGGCCACAGCAGAAGCGUUCACGUCGCGGCCCUUGUCAGAUUCUGAUGAAUCUGCGAAUUCUGCUGU | 1.01
46 | GGGGGCCACAGCAGAAGCGUUCACGUCGCGGCCCUUGUCACAUUCUGGUGAAUCUGCGAAUUCUGCUGU | 0.632
47 | GGGGGCCACAGCAGAAGCGUUCACGUCGCGGCCCUUGUCAUAUUCUGGUGAAUCUGCGAAUUCUGCUGU | 0.745
48 | GGGGGCCACAGCAGAAGCGUUCACGUCGCGGCCCUUGUCAGAUUCUGGUGAAUAUGCGAAUUCUGCUGU | 0.744
49 | GGGGGCCACAGCAGAAGCGUUCACGUCGCGGCCCUUGUCAGAUUCUUGUGAAUCUGCGAAUUCUGCUGU | 1.01
50 | GGGGGCCACAGCAGAAGCGUUCACGUCGCGGCCCUUGUCAGAUUCUCGUGAAUCUGCGAAUUCUGCUGU | 0.967
51 | GGGGGCCACAGCAGAAGCGUUCACGUCGCGGCCCUUGUCAGAUUCUAGUGAAUCUGCGAAUUCUGCUGU | 0.918
52 | GGGGGCCACAGCAGAAGCGUUCACGUCGCGGCCCUUGUCAGAUUCUGGUGAAUCUGCGAAUUCUGAUGU | 0.828

Row | Variant | self-cleavage
53 | GGGGGCCACAGCAGAAGCGUUCACGUCGCGGCCCUUGUCAGAUUGUGGUGAAUCUGCGAAUUCUGCUGU | 0.956
54 | GGGGGCCACAGCAGAAGCGUUCACGUCGCGGCCCUUGUCAGAUUCUGGUGAAUCUGCGAAUUAUGCUGU | 0.77
55 | GGGGGCCACAGCAGAAGCGUUCACGUCGCGGCCCUUGUCAGAUUCUGGUGAAUCUGCGAAUUGUGCUGU | 0.588
56 | GGGGGCCACAGCAGAAGCGUUCACGUCGCGGCCCUUGUCAGAUUCUGGUGAAUCUGCGAAUUUUGCUGU | 0.954
57 | GGGGGCCACAGCAGAAGCGUUCACGUCGCGGCCCUUGUAAGAUUCUGGUGAAUCUGCGAAUUCUGCUGU | 0.782
58 | GGGGGCCACAGCAGAAGCGUUCACGUCGCGGCCCUUGUGAGAUUCUGGUGAAUCUGCGAAUUCUGCUGU | 0.878
59 | GGGGGCCACAGCAGAAGCGUUCACGUCGCGGCCCUUGUCAGAAUCUGGUGAAUCUGCGAAUUCUGCUGU | 0.818
60 | GGGGGCCACAGCAGAAGCGUUCACGUCGCGGCCCUUGUCAGAUUCUGGUGAAUCUGCGGAUUCUGCUGU | 0.999
61 | GGGGGCCACAGCAGAAGCGUUCACGUCGCGGCCCUUGUCAGAUUCUGGUGAAUCUGCGUAUUCUGCUGU | 0.564
62 | GGGGGCCACAGCAGAAGCGUUCACGUCGCGGCCCUUGUCAGAUUCUGGUGAAUCUGCGCAUUCUGCUGU | 0.41
63 | GGGGGCCACAGCAGAAGCGUUCACGUCGCGGCCCGUGUCAGAUUCUGGCGAAUCUGCGAAUUCUGCUGU | 0.513
64 | GGGGGCCACAGCAGAAGCGUUCACGUCGCGGCCCUUGUCAGAUUCUGGUGAAUCUGCGAAUUCUGCUUU | 1.01
65 | GGGGGCCACAGCAGAAGCGUUCACGUCGCGGCCCUUGUCAGAUUCUGGUGAAUCUGCGAAUUCUGCUCU | 0.963
66 | GGGGGCCACAGCAGAAGCGUUCACGUCGCGGCCCUUGUCAGAUUCUGGUGGAUCUGCGAAUUCUGCUGU | 0.904
67 | GGGGGCCACAGCAGAAGCGUUCACGUCGCGGCCCUUGUCAGAUUCUGGUGCAUCUGCGAAUUCUGCUGU | 0.958
68 | GGGGGCCACAGCAGAAGCGUUCACGUCGCGGCCCUUGUCAGAUUCUGGUGUAUCUGCGAAUUCUGCUGU | 0.904
69 | GGGGGCCACAGCAGAAGCGUUCACGUCGCGGCCCGUGUCAGAUUCUGGUGAAUCUGCGAAAUCUGCUGU | 0.33
70 | GGGGGCCACAGCAGAAGCGUUCACGUCGCGGCCCUUGUCAGAUUCUGGUGAGUCUGCGAAUUCUGCUGU | 0.974
71 | GGGGGCCACAGCAGAAGCGUUCACGUCGCGGCCCUUGUCAGAUUCUGGUGAUUCUGCGAAUUCUGCUGU | 0.973
72 | GGGGGCCACAGCAGAAGCGUUCACGUCGCGGCCCUUAUCAGAUUCUGGUGAAUCUGCGAAUUCUGCUGU | 0.253
73 | GGGGGCCACAGCAGAAGCGUUCACGUCGCGGCCCGUGUCAGAUUCCGGUGAAUCUGCGAAUUCUGCUGU | 0.378
74 | GGGGGCCACAGCAGAAGCGUUCACGUCGCGGCCCUUGUCAGAUUCUGGUGAAUCUGAGAAUUCUGCUGU | 0.323
75 | GGGGGCCACAGCAGAAGCGUUCACGUCGCGGCCCGUGUCAGAUUCUGGUGAAUCUGCGAAUUCUGCUAU | 0.741
76 | GGGGGCCACAGCAGAAGCGUUCACGUCGCGGCCCGUGUCAGAUUCUGGUGAAUCUGCGAAUUCUGCUCU | 0.77
77 | GGGGGCCACAGCAGAAGCGUUCACGUCGCGGCCCGUGUCAGAUUCUGGUGAAUCUGCGAAUACUGCUGU | 0.313
78 | GGGGGCCACAGCAGAAGCGUUCACGUCGCGGCCCGUGUCAGAUUCUGGUGAAUCUGCGAAUGCUGCUGU | 0.308
